Reference: patent US6713294B1, “DNA glycosylases and their use” (priority 1996, dated 2004)
Numbering of substitutions follows the chain as printed.

Key:
[1] = test system: ^3H-uracil released in uracil-DNA glycosylase assays; test: Uracil-DNA glycosylase activity after coupled transcription/translation in rabbit reticulocyte lysates; type: biochemical
Method: In vitro transcription/translation was performed with the TNT® transcription/translation system with […] as recommended by the manufacturer, using 200 ng of the expression constructs per 10 μl reaction volume. The mouse UNG1-pBluescript® construct was transcribed from the T3 promoter in the pBluescript® vector. The insert of mouse UNG2-pBluescript® was amplified by the polymerase chain reaction using Dynazyme® PCR kit, ligated into the pGEM-T vector and transcribed from the T7 promoter. […] Human UNG1 CDNA was transcribed from the T7 promoter as previously described (Slupphaug et al., 1995, Biochemistry, 34, p128-138). The samples were run on a 12% denaturing sodium dodecyl sulfate polyacrylamide gel (SDS-PAGE). The gel was dried, autoradiographed overnight and scanned on an LKB Ultroscan XL Enhanced Laser Densitometer. Uracil-DNA glycosylase activity was measured in parallel samples of the in vitro transcription/translation assay mixture containing unlabelled amino acids (Slupphaug et al., 1995, supra). A construct containing both promoters (pGL2-ProAB) linked to the luciferase gene was prepared by insertion of a PvuII/MluI fragment (the enzymes cleave in positions 418 and 1035, respectively) from the promoter region of the UNG gene into the SmaI-MluI sites of pGL2-ProB. […]

[^3H]dUMP-labelled DNA [2] = Release of uracil from ds or ss [3H]dUMP-labelled DNA; type: biochemical; conditions: for U-ds, pmol excised per min per mg protein: double-stranded uracil DNA, 0 = below detection limit (10 pmol per mg protein per min); for U-ds, pmol excised per min per mg protein / U-ss, pmol excised per min per mg protein: 2 μM, 10 min, 37° C.; for U-ss, pmol excised per min per mg protein: single-stranded uracil DNA, 0 = below detection limit
Method: (§1) To test enzymatic substrate specificities, 250 ng purified human “wild type” UDG (UNGΔ84), UNGΔ84Tyr147Ala or UNGΔ84Asn204Asp, were mixed with 200 ng ds- or ss-[^3H]cytosine-labelled DNA (150 mCi/mmol), or ds- or ss-[^3H]thymine-labelled DNA (100 mCi/mmol) in 10 mM NaCl, 20 mM Tris-HCl (pH 7.5), 1 mM EDTA, 1 mM dithiothreitol and 0.5 mg/ml bovine serum albumin (final concentrations) in 20 μl separate reactions. The final concentrations of the [^3H]cytosine-DNA (C) and [^3H]thymine-DNA (T) substrates were 6.5 μM and 10 μM, respectively. Release of radioactivity as a function of time was measured at 37° C. These conditions are later referred to as standard conditions. Substrate synthesis and processing of samples for scintillation counting were as described in Krokan and Wittwer (1981) Nucl. Acids Res., 9: 2599-2613. Single-stranded substrate was generated by boiling double-stranded substrate for 10 min, followed by rapid cooling on ice.
(§2) For measuring release of uracil from double-stranded (U-ds) or single-stranded (U-ss) DNA the various mutant enzymes (prepared as described in Example 1 and by analogous site-directed mutagenesis methods and identical expression and purification methods) were incubated with 200 ng ds- or ss-[^3H]dUMP-labelled DNA (500 mCi/mmol, 2 μM final concentration) in 20 μl separate reactions for 10 min under standard conditions as described in Example 1. For measuring release of [^3H]cytosine or [^3H]thymine, assays were performed as described in Example 1 using an incubation time of 10 min. Uracil inhibition was analysed by adding 5 mM uracil (final concentration) to a standard U-ds assay. 0 activity indicates activity below detection limit (10 pmol per mg protein per min) with 100 ng enzyme and 200 ng DNA substrate at standard conditions.

[3] = test system: [^3H]cytosine-labelled DNA; test: Release of [3H]cytosine from ds or ss labelled DNA; type: biochemical; conditions: for C-ds, pmol excised per min per mg protein: double-stranded cytosine DNA
Method: as §1, §2

[4] = test system: Escherichia coli DH5α (recA^−); test: Cytotoxicity in recA- background; type: cell-based; conditions: E. coli DH5α, even without induction; data not shown
[5] = test system: Escherichia coli recA^+ host cells (NR8051 and NR8052); test: Survival of E. coli host cells expressing CDG or TDG; type: cell-based; conditions: for Survival of host cells after induction by IPTG: both NR8051 and NR8052, within 5 hrs; for Survival of recA^+ host cells carrying uninduced plasmid: data not shown
[^3H]dUMP-labelled DNA [6] = Kinetic parameters on uracil substrate; type: biochemical; conditions: for Kcat: calculated from Vmax assuming Mr=25000
Method: The final concentrations of the [^3H]cytosine-DNA (C) and [^3H]thymine-DNA (T) substrates were 6.5 μM and 10 μM, respectively. Release of radioactivity as a function of time was measured at 37° C. These conditions are later referred to as standard conditions. Substrate synthesis and processing of samples for scintillation counting were as described in Krokan and Wittwer (1981) Nucl. Acids Res., 9: 2599-2613. Single-stranded substrate was generated by boiling double-stranded substrate for 10 min, followed by rapid cooling on ice.
(§3) The kinetic parameters were determined using six different substrate concentrations to obtain the Km and Vmax values. Duplicate samples were incubated for 20 min using standard assay buffer conditions and substrates as specified. Km and Vmax were calculated using the computer program Enzpack, version 3.0 after the method of Wilkinson (1961) Biochem. J., 80: 324-332.

[7] = test system: [^3H]cytosine-labelled DNA; test: Kinetic parameters on cytosine substrate; type: biochemical; conditions: for Kcat: calculated from Vmax assuming Mr=25000
Method: as §1, §3

[8] = test system: E. coli ung^+ strain (NR8051); test: Frequency of rifampicin resistant mutations, ung+ strain; type: cell-based
Method: An overnight culture of E. coli strains NR8051 and NR8052 (both recA^+, provided by Tomas Kunkel of National Institute of Environmental Health, USA) containing plasmids pTrc99A, pTUNGΔ84, UNGΔ84Tyr147Ala and UNGΔ84Asn204Asp were prepared as described in Example 1 and grown in LB-medium with ampicillin (100 μg/ml) at 30° C. The culture was then diluted 1:20 in fresh medium and cultured for 5 hours at 37° C. Induced culture contained 1 mM IPTG in the LB-medium. To determine the number of rifampicin resistant bacteria, 100 μl of the culture were mixed with 3 ml top agarose and poured on LB plates containing 100 μg/ml rifampicin and incubated overnight at 37° C. Colonies were counted and the number of rifampicin resistant colonies per 10^8 viable cells was calculated.

[9] = test system: [^3H]thymine-labelled DNA; test: Release of [3H]thymine from ds or ss labelled DNA; type: biochemical; conditions: for T-ds, pmol excised per min per mg protein: double-stranded thymine DNA; for T-ds, pmol excised per min per mg protein / T-ss, pmol excised per min per mg protein: 10 μM, 10 min, 0 = below detection limit; for T-ss, pmol excised per min per mg protein: single-stranded thymine DNA
Method: as §1, §2

[^3H]dUMP-labelled DNA [10] = Uracil inhibition in standard U-ds assay; type: biochemical; conditions: 5 mM uracil added to standard U-ds assay
Method: as §2

[11] = test system: [^3H]thymine-labelled DNA; test: Kinetic parameters on thymine substrate; type: biochemical; conditions: for Kcat: calculated from Vmax assuming Mr=25000
Method: as §1, §3

7-methylguanine = conditions: Roy et al. (1994); cited from earlier work
3-methyladenine = conditions: Roy et al. (1994); cited from earlier work
3-methyladenine-DNA = conditions: Bjelland et al. (1994); cited from earlier work
[12] = 6.5 μM, 10 min, 0 = below detection limit

Molecule: mouse UNG2: mouse homolog of human UNG2
- dpm (^3H-uracil released) ([1]; after subtraction of background of 123 dpm): 856 dpm
- Activity (dpm/area), relative specific activity ([1]; translation in rabbit reticulocyte lysates): 16784 dpm/area

B1: Asn204Asp: human UDG mutant, codon 204 Asn changed to Asp; cytosine-DNA glycosylase (CDG) (protein)
chain: MGVFCLGPWGLGRKLRTPGKGPLQLLSRLCGDHLQAIPAKKAPAGQEEPGTPPSSPLSAEQLDRIQRNKAAALLRLAARNVPVGFGESWKKHLSGEFGKPYFIKLMGFVAEERKHYTVYPPPHQVFTWTQMCDIKDVKVVILGQDPYHGPNQAHGLCFSVQRPVPPPPSLENIYKELSTDIEDFVHPGHGDLSGWAKQGVLLLDAVLTVRAHQANSHKERGWEQFTDAVVSWLNQNSNGLVFLLWGSYAQKKGSAIDRKRHHVLQTAHPSPLSVYRGFFGCRHFSKTNELLQKSGKKPIDWKEL
- U-ds, pmol excised per min per mg protein ([^3H]dUMP-labelled DNA [2]): 1.7 × 10^4 pmol excised per min per mg protein
- U-ss, pmol excised per min per mg protein ([^3H]dUMP-labelled DNA [2]): 1.6 × 10^5 pmol excised per min per mg protein
- UDG activity remaining compared with wild type ([^3H]dUMP-labelled DNA [2]; uracil release, ds and ss): 0.04-0.16%
- C-ds, pmol excised per min per mg protein [3, 12]: 3.0 × 10^2 pmol excised per min per mg protein
- Preference for single stranded substrate ([3]; ss versus ds substrate): 10 fold
- Cytotoxicity in recA^− background [4]: highly cytotoxic
- Survival of host cells after induction by IPTG [5]: less than 50%
- Survival of recA^+ host cells carrying uninduced plasmid [5]: equal to that of the parental cell carrying plasmid pTrc99A
- Km ([^3H]dUMP-labelled DNA [6]; U-ds substrate): 2.4 µM
- Kcat ([^3H]dUMP-labelled DNA [6]; U-ds substrate): 0.02 s⁻¹
- Km ([^3H]dUMP-labelled DNA [6]; U-ss substrate): 2 µM
- Kcat ([^3H]dUMP-labelled DNA [6]; U-ss substrate): 0.25 s⁻¹
- Km ([7]; C-ds substrate): 35 µM
- Kcat ([7]; C-ds substrate): 0.002 s⁻¹
- Km ([7]; C-ss substrate): 5.3 µM
- Kcat ([7]; C-ss substrate): 0.0065 s⁻¹
- Factor of increase of mutation frequency compared to host cells carrying parental plasmid pTrc99A ([8]; E. coli ung^+ cells, uninduced): 8.6
- Factor of increase of mutation frequency compared to host cells carrying parental plasmid pTrc99A ([8]; induced ung^+ cells): approximately 8.9
- T-ds, pmol excised per min per mg protein [9]: 0 pmol excised per min per mg protein
- T-ss, pmol excised per min per mg protein [9]: 0 pmol excised per min per mg protein
- Inhibition 5 mM Uracil ([^3H]dUMP-labelled DNA [10]): 0%

B2: Tyr147Ala (protein)
chain: B1 chain with Y147A, D204N
- U-ds, pmol excised per min per mg protein ([^3H]dUMP-labelled DNA [2]): 2.2 × 10^4 pmol excised per min per mg protein
- U-ss, pmol excised per min per mg protein ([^3H]dUMP-labelled DNA [2]): 2.2 × 10^4 pmol excised per min per mg protein
- C-ds, pmol excised per min per mg protein [3, 12]: 0 pmol excised per min per mg protein
- C-ss, pmol excised per min per mg protein ([3]; single-stranded cytosine DNA, 6.5 μM, 10 min, 0 = below detection limit): 0 pmol excised per min per mg protein
- Cytotoxicity in recA^− background [4]: highly cytotoxic
- Survival of host cells after induction by IPTG [5]: < 10%
- Survival of recA^+ host cells carrying uninduced plasmid [5]: equal to that of the parental cell carrying plasmid pTrc99A
- Km ([^3H]dUMP-labelled DNA [6]; U-ds substrate): 3.5 µM
- Kcat ([^3H]dUMP-labelled DNA [6]; U-ds substrate): 0.0167 s⁻¹
- Km ([^3H]dUMP-labelled DNA [6]; U-ss substrate): 0.3 µM
- Kcat ([^3H]dUMP-labelled DNA [6]; U-ss substrate): 0.01 s⁻¹
- Factor of increase of mutation frequency compared to host cells carrying parental plasmid pTrc99A ([8]; E. coli ung^+ cells, uninduced): 39
- Mutation frequency in vivo relative to CDG activity ([8]; Escherichia coli): 10 fold
- Factor of increase of mutation frequency compared to host cells carrying parental plasmid pTrc99A ([8]; induced ung^+ cells): ~94.4
- T-ds, pmol excised per min per mg protein [9]: 1.3 × 10^3 pmol excised per min per mg protein
- T-ss, pmol excised per min per mg protein [9]: 7.5 × 10^2 pmol excised per min per mg protein
- Preference for single stranded substrate ([9]; ss versus ds substrate): decreased preference
- Km ([11]; T-ds substrate): 6 µM
- Kcat ([11]; T-ds substrate): 0.001 s⁻¹
- Km ([11]; T-ss substrate): 1.4 µM
- Kcat ([11]; T-ss substrate): 0.00033 s⁻¹
- Inhibition 5 mM Uracil ([^3H]dUMP-labelled DNA [10]): 0%

B3: N-methylpurine-DNA glycosylase: recombinant N-methylpurine-DNA glycosylase from mouse (protein, UniProt Q04841 1-333, looked up)
DNA-3-methyladenine …: MPARGGSARPGRGALKPVSVTLLPDTEQPPFLGRARRPGNARAGSLVTGYHEVGQMPAPLSRKIGQKKQRLADSEQQQTPKERLLSTPGLRRSIYFSSPEDHSGRLGPEFFDQPAVTLARAFLGQVLVRRLADGTELRGRIVETEAYLGPEDEAAHSRGGRQTPRNRGMFMKPGTLYVYLIYGMYFCLNVSSQGAGACVLLRALEPLEGLETMRQLRNSLRKSTVGRSLKDRELCSGPSKLCQALAIDKSFDQRDLAQDDAVWLEHGPLESSSPAVVVAAARIGIGHAGEWTQKPLRFYVQGSPWVSVVDRVAEQMDQPQQTACSEGLLIVQK
- Kcat for excision of 7-methylguanine (7-methylguanine): 0.00333 s⁻¹
- Kcat for excision of 3-methyladenine (3-methyladenine): 0.013 s⁻¹

B4: AlkA: Escherichia coli inducible 3-methyladenine-DNA glycosylase II (protein, UniProt P04395 1-282, looked up)
DNA-3-methyladenine …: MYTLNWQPPYDWSWMLGFLAARAVSSVETVADSYYARSLAVGEYRGVVTAIPDIARHTLHINLSAGLEPVAAECLAKMSRLFDLQCNPQIVNGALGRLGAARPGLRLPGCVDAFEQGVRAILGQLVSVAMAAKLTARVAQLYGERLDDFPEYICFPTPQRLAAADPQALKALGMPLKRAEALIHLANAALEGTLPMTIPGDVEQAMKTLQTFPGIGRWTANYFALRGWQAKDVFLPDDYLIKQRFPGMTPAQIRRYAERWKPWRSYALLHIWYTEGWQPDEA
- Turnover number on 3-methyladenine-DNA (3-methyladenine-DNA): 0.03 min⁻¹
